Where no end group is shown, it is not given here.
Columns and labels:
[1] = target: T1, human PTH/PTHrP receptor (Homo sapiens, UniProt Q03431); assay: Cytosolic free calcium (fura-2) in LLC-PK1 cells expressing human PTHR; settings: 100 nM peptide; HKRK B7 cells
T1 sequence (Q03431 27-593): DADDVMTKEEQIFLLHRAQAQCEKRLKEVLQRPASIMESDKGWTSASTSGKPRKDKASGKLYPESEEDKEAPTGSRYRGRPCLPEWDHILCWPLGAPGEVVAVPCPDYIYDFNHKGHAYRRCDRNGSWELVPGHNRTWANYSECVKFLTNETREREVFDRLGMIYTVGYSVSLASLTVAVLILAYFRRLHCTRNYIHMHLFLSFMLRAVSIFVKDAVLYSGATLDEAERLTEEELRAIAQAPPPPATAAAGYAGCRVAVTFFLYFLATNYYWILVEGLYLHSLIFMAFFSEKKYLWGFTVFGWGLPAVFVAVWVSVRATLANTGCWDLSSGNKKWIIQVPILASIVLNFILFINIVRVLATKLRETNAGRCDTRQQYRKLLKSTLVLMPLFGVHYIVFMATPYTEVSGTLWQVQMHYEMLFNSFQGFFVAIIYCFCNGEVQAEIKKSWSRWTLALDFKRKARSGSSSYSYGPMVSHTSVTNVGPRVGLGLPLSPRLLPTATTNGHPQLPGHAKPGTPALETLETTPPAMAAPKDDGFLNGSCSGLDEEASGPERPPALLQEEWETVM
Protocol: Cytosolic free calcium was measured in fura 2AM-loaded confluent monolayers of cells.
Cytosolic free calcium was measured by dual fluorescence in cells loaded with the Ca^2+-sensitive intracellular probe fura-2. Cells were seeded onto glass coverslips at a density of 40,000-600,000/cm^2 and incubated for 2 days as described above. Coverslips were washed twice with PBS before loading in phosphate-free Buffer B containing 4 uM of fura-2/AM (Molecular Probes, Eugene, Oreg.) for 30 min at room temperature (22° C.). After washing twice with fura-free Buffer B, the coverslips were mounted in a cuvette containing 2 ml of phosphate-free Buffer B at 37° C. and the emission at 510 nm in response to alternating excitation at 340 and 380 nm was monitored using a ratiometric PTI Deltascan fluorescence spectrometer with excitation and emission bandwidths of 2 nm. After achieving a stable baseline, agonists were introduced by exchange into 2 ml of fresh buffer to which 10-20 ul of concentrated agonist stock (or vehicle alone) had been added. Peptide stocks were prepared in 0.1% trifluoroacetic acid, ionomycin and phorbol esters were dissolved in dimethyl sulfoxide and all other additives were prepared in water. Maximum and minimum fluorescence signals were obtained by exposure to modified buffers containing 1 uM ionomycin plus 20 mM calcium or 2 mM EGTA in the nominal absence of calcium, respectively, and autofluorescence was estimated from signals obtained in the presence of ionomycin plus 2.5 mM MnCl2.

[2] = target: T1, human PTH/PTHrP receptor; assay: IP3 production (PLC activation) in LLC-PK1 cells expressing human PTHR; assay type: cell-based; set-up: transfected with a full-length human PTH/PTHrP receptor cDNA; expressed in transfected cells; settings: for activation of PLC (in words): 1000 nM, HKRK B28 at 4 min and HKRK B7 at 30 min; for formation of IP3 (activation of phospholipase-C): peptide 1000 nM, mean±SEM
Protocol: Cells were seeded into 24-well plates at a density of 2.5×10^5 cells/well and cultured for a further 2 days before study. The cells were labeled at 37° C. for 16 h before assay with 3 uCi/ml of [^3H]myo-inositol in assay medium (serum- and inositol-free DMEM (GIBCO-BRL, Grand Island, N.Y.) supplemented with 0.1% BSA). After washing the cells with prewarmed assay medium containing 30 mM LiCl, they were incubated with 0.25 ml of assay medium containing 30 mM LiCl and stimulators (or vehicle) at 37° C. for various intervals(1-30 min). IP3 formation was arrested by aspiration and immediate addition of 0.5 ml of ice-cold 5% TCA. The acid extracts then were extracted twice with two volumes of water-saturated ether and adjusted to pH 7.4 with concentrated NaOH and Tris base (final concentration=10 mM) prior to chromatography on AG 1×8 anion-exchange columns (Bio-Rad, Richmond, Calif.), as previously described (Guo, J., et al., Endocrinology 136:3884-3891 (1995)). After eluting other fractions (free [^3H]myo-inositol, glycerophosphate inositol, IP1, and IP2), IP3 fractions were collected and their content of radioactivity was determined by liquid scintillation spectrometry (Beckman, model LS 6000IC).
HKRK B7 cells and HKRK B28 cells, previously loaded with [^3H]myo-inositol, were incubated with each peptide (1000 nM) for 30 min or 4 min, respectively. The formation of IP3 is expressed as a percentage of the amount measured in vehicle-treated controls. Values shown are means±SEM of triplicate determinations.

[3] = target: T1, human PTH/PTHrP receptor; assay: Cellular cAMP accumulation in LLC-PK1 cells expressing human PTHR; assay type: cell-based; set-up: transfected with a full-length human PTH/PTHrP receptor cDNA; expressed in transfected cells; settings: HKRK B28 cells; for activation of AC (in words): similar in HKRK B7
Protocol: Cells were seeded into 24-well plates at a density of 2.5×10^5 cells/well and cultured for a further 2 days before study. The cells were rinsed once with 0.5 ml of ice-cold Buffer B [10 mM HEPES (pH 7.4), 130 mM NaCl, 5 mM KCl, 1.2 mM CaCl2, 1 mM MgCl2, 1.2 mM Na2HPO^4 5 mM glucose, and 0.1% heat-inactivated BSA] supplemented with 1 mM isobtylmethylxanthine (IBMX), and placed on ice. Treatments were added to each well in 0.25 ml of IBMX-supplemented Buffer B, after which the plates were incubated at 37° C. for 15 min. The buffer then was rapidly aspirated, the plates were rapidly transferred onto liquid nitrogen, and the frozen monolayers were subsequently thawed directly into 0.5 ml of 50 mM HCl. The extracted cAMP then was measured using a commercial RIA kit (Dupont-New England Nuclear, Boston, Mass.). Results were expressed as fold-basal, where basal levels ranged between 38 and 128 pmol/mg protein/15 min. The basal level of cAMP accumulation in native LLC-PK1 cells was not consistently altered in subclones that expressed wild type PTH/PTHrp receptors.
Maximal PTH-dependent cAMP accumulation was assessed in the human PTHR-transfected LLC-PK1 subclones following incubation for 15 min with a high concentration (1000 nM) of hPTH(1-34) (Table 1). As reported previously for LLC-PK1 cells that stably expressed rat PTHRs (Guo, J., et al., Endocrinology 136:3884-3891 (1995)), the maximal adenylyl cyclase response was relatively independent of the surface density of human PTHRs above a relatively low threshold (relative to that required for PLC activation—see below). In the case of the human PTHR, however, this threshold for saturation of maximal AC activation appeared to lie between 120,000 and 280,000 (Table 1), which is at least 6 to 10-fold higher than that previously observed for the rat PTHR (Guo, J., et al., Endocrinology 136:3884-3891 (1995)).

[4] = target: T1, human PTH/PTHrP receptor; assay: Urokinase-type plasminogen activator (u-PA) secretion bioassay in LLC-PK1 cells expressing human PTHR; settings: for secreted u-PA: peptide 1000 nM, 16 hr, mean±SEM
Protocol: Cells were seeded into 96-well plates at a density of 6×10^4 cells/well and used the following day. The cells were washed once with 0.2 ml and then refed with 0.1 ml of prewarmed DMEM containing 0.05% BSA. After adding each stimulator, plates were returned to the incubator at 37° C. for 16 h. Conditioned medium (5 ul) then was transferred from each well to a clean microplate. […] Activity was expressed in Ploug units/well, using purified human urokinase (Calbiochem) as a standard.
Cells were incubated with the indicated peptides (1000 nM) for 16 hr before measurement of secreted u-PA present in the medium, which was expressed as a percentage of the activity measured in vehicle-treated controls. Values shown are means±SEM of triplicate determinations.

[5] = target: T1, human PTH/PTHrP receptor; assay: Cellular phosphate uptake in LLC-PK1 cells expressing human PTHR; assay type: cell-based; set-up: transfected with a full-length human PTH/PTHrP receptor cDNA; expressed in transfected cells; settings: HKRK B28 and HKRK B7 cells; peptides 1000 nM, 6 hr
Protocol: FIG. 8. Regulation of phosphate uptake by PTH in HKRK B7 and HKRK B28 cells. […] Results are expressed as percentage of basal, and each bar represents the mean±SEM of a representative experiment performed in triplicate. Similar results were obtained from at least 5 individual experiments. Cells were seeded into 24-well plates at a density of 2.5×10^5 cells/well and cultured for a further 2 days before study. Twenty four hours before assay, cells were refed with 0.5 ml of DMEM containing 0.1% BSA. The next day, cells were refed with serum-free medium (DMEM+0.1% BSA) containing drugs or peptides, and the incubations were continued at 37° C. under 5% CO2 in air for another 6 hr. Cells then were washed with prewarmed Buffer B without BSA and Na2HPO4 and then were incubated at 37° C. for 5 min in 0.25 ml of the same buffer containing [^32P]orthophosphate (4 uCi/ml) and 0.1 mM Na2HPO4. Phosphate uptake was arrested by adding 1 ml of ice-cold sodium-free “stop buffer” [10 mM HEPES (pH 7.4), 140 mM choline chloride, and 5 mM sodium arsenate], followed by two further washes with same buffer. The drained cell layer then was solubilized in 0.5 ml of Lysis Buffer, and cell-associated radioactivity was determined by Cerenkov counting, as previously described (Guo, J., et al., Endocrinology 136:3884-3891 (1995)).

[6] = HKRK B7 cells, 30 min stimulation
[7] = HKRK B28 cells, 4 min stimulation

Substance: hPTH(3-34) (SEIQLMHNLGKHLNSMERVEWLRKKLQDVHNF-NH2; UniProt P01270 34-65, looked up, fragment) [amino-terminally truncated human PTH analog]
- cytosolic free calcium transients [1]: neither hPTH(3-34) nor hPTH(7-34) (100 nM) induced this response
- activation of PLC (in words) [2]: neither hPTH(3-34) nor hPTH(7-34) activated PLC significantly
- formation of IP3 (activation of phospholipase-C) [2, 6]: 103 ± 1 percentage of vehicle-treated
- formation of IP3 (activation of phospholipase-C) [2, 7]: 85 ± 9 percentage of vehicle-treated
- concentrations at which AC was stimulated significantly [3]: ≥ 10 nM
- cAMP response as % of the maximal response to hPTH(1-34) ([3]; 1000 nM peptide): 16%
- u-PA bioassay activity, % of maximal response to hPTH(1-34) ([4]; HKRK B7 and HKRK B28 cells): 50-60%
- secreted u-PA ([4]; HKRK B7 cells): 57 ± 3 percentage of the activity measured in vehicle-treated controls
- secreted u-PA ([4]; HKRK B28 cells): 50 ± 1 percentage of the activity measured in vehicle-treated controls
- maximal activation of phosphate uptake (in words) [5]: inactive

Substance: hPTH(7-34) (LMHNLGKHLNSMERVEWLRKKLQDVHNF; Parathyroid hormone; UniProt P01270 38-65, looked up, fragment) [amino-terminally truncated human PTH analog]
- cytosolic free calcium transients [1]: neither hPTH(3-34) nor hPTH(7-34) (100 nM) induced this response
- activation of PLC (in words) [2]: neither hPTH(3-34) nor hPTH(7-34) activated PLC significantly
- formation of IP3 (activation of phospholipase-C) [2, 6]: 122 ± 7 percentage of vehicle-treated
- formation of IP3 (activation of phospholipase-C) [2, 7]: 92 ± 10 percentage of vehicle-treated
- activation of AC (in words) [3]: failed to activate AC at all concentrations tested
- u-PA bioassay activity (in words) ([4]; HKRK B7 and HKRK B28 cells): inactive
- secreted u-PA ([4]; HKRK B7 cells): 1 ± 1 percentage of the activity measured in vehicle-treated controls
- secreted u-PA ([4]; HKRK B28 cells): 0 ± 2 percentage of the activity measured in vehicle-treated controls
- maximal activation of phosphate uptake (in words) [5]: inactive

Substance: hPTHrp(1-36)
- activation of PLC (in words) [2]: stimulated PLC equivalently to hPTH(1-34)
- formation of IP3 (activation of phospholipase-C) [2, 6]: 93 ± 6 percentage of vehicle-treated
- formation of IP3 (activation of phospholipase-C) [2, 7]: 160 ± 9 percentage of vehicle-treated
- activation of AC (in words) [3]: indistinguishable from that to hPTH(1-34)
- secreted u-PA ([4]; HKRK B7 cells): 88 ± 5 percentage of the activity measured in vehicle-treated controls
- secreted u-PA ([4]; HKRK B28 cells): 97 ± 9 percentage of the activity measured in vehicle-treated controls
- maximal activation of phosphate uptake (in words) [5]: comparable maximal activation of phosphate uptake

Source: patent US7033773B1, “Screening assays for G protein coupled receptor agonists and antagonists” (The General Hospital Corporation, priority 1997, dated 2006)
